B1: PDL1-1v8 (VHH)
VHH: EVQLLESGGGLVQPGGSLRLSCAASGFTVSNSAVSWARQAPGKGLEWVSLIDSNRNTVYAQSVRGRFTISRDNSKNTVYLQMNSLRAEDTAVYYCAKGIWGSTLTGQGTTVTVSS
notes: Humanized PDL1-1, His-tagged
B2: PDL1-1v10 (VHH)
VHH: B1 VHH with D52A, T105W
notes: Humanized PDL1-1, His-tagged
B3: PDL1-1v1 (VHH)
VHH: B1 VHH with T105W
notes: Humanized PDL1-1, His-tagged, from 293-F
B4: PDL1-1v6 (VHH)
VHH: B1 VHH with R86K, T105W
notes: Humanized PDL1-1, His-tagged
B5: PDL1-1v3 (VHH)
VHH: B1 VHH with E1Q, T105W
notes: Humanized PDL1-1, His-tagged
B6: PDL1-1v7 (VHH)
VHH: B1 VHH with A87P, T105W
notes: Humanized PDL1-1, His-tagged
B7: PDL1-1v4 (VHH)
VHH: B1 VHH with L5Q, T105W
notes: Humanized PDL1-1, His-tagged
B8: PDL1-1v9 (VHH)
VHH: B1 VHH with T105W, T110Q
notes: Humanized PDL1-1, His-tagged
B9: PDL1-1v15 (VHH)
VHH: B1 VHH with E1Q, L5V, Q13K, S74A, T105W
notes: Humanized PDL1-1, His-tagged
B10: PDL1-1v11 (VHH)
VHH: B1 VHH with E1Q, L5Q, Q13K, S74A, T77S, T105W
notes: Humanized PDL1-1, His-tagged
B11: PDL1-1v2 (VHH)
VHH: B1 VHH with E1Q, L5V, Q13K, S74A, T77S, T105W
notes: Humanized PDL1-1, His-tagged
B12: PDL1-1v16 (VHH)
VHH: B1 VHH with E1Q, L5V, Q13K, S74A, T77S, R86K, T105W
notes: Humanized PDL1-1, His-tagged
B13: PDL1-1v14 (VHH)
VHH: B1 VHH with E1Q, L5V, Q13K, S74V, T77S, T105W
notes: Humanized PDL1-1, His-tagged
B14: PDL1-1v18 (VHH)
VHH: B1 VHH with E1Q, L5V, Q13K, S74A, T77S
notes: Humanized PDL1-1, His-tagged
B15: PDL1-1v17 (VHH)
VHH: B1 VHH with E1Q, L5V, Q13K, S74A, T77S, A87P, T105W
notes: Humanized PDL1-1, His-tagged
B16: PDL1-1v13 (VHH)
VHH: B1 VHH with E1Q, L5V, Q13K, R19T, S74A, T77S, T105W
notes: Humanized PDL1-1, His-tagged
B17: PDL1-1v20 (VHH)
VHH: B1 VHH with E1Q, L5V, Q13K, D52A, S74A, T77S, T105W
notes: Humanized PDL1-1, His-tagged
B18: PDL1-1v12 (VHH)
VHH: B1 VHH with E1Q, L5V, S74A, T77S, T105W
notes: Humanized PDL1-1, His-tagged
B19: PDL1-1v19 (VHH)
VHH: B1 VHH with E1Q, L5V, Q13K, S74A, T77S, T105W, T110Q
notes: Humanized PDL1-1, His-tagged
B20: Fusion 2 (other, murine)
chain 1: RVIPVSGPARCLSQSRNLLKTTDDMVKTAREKLKHYSCTAEDIDHEDITRDQTSTLKTCLPLELHKNESCLATRETSSTTRGSCLPPQKTSLMMTLCLGSIYEDLKMYQTEFQAINAALQNHNHQQIILDKGMLVAIDELMQSLNHNGETLRQKPPVGEADPYRVKMKLCILLHAFSTRVVTINRVMGYLSSAHHHHHH
chain 2: MWELEKDVYVVEVDWTPDAPGETVNLTCDTPEEDDITWTSDQRHGVIGSGKTLTITVKEFLDAGQYTCHKGGETLSHSHLLLHKKENGIWSTEILKNFKNKTFLKCEAPNYSGRFTCSWLVQRNMDLKFNIKSSSSSPDSRAVTCGMASLSAEKVTLDQRDYEKYSVSCQEDVTCPTAEETLPIELALEARQQNKYENYSTSFFIRDIIKPDPPKNLQMKPLKNSQVEVSWEYPDSWSTPHSYFSLKFFVRIQRKKEKMKETEEGCNQKGAFLVEKTSTEVQCKGGNVCVQAQDRYYNSSCSKWACVPCRVRSGGGGSGGGGSGGGGSQVQLQESGGGLVQPGGSLTLSCAASGFTVSNSAVSWARQAPGKGLEWVSLIDSNRNTVYAQSVRGRFTISRDNVKNTVYLQMNSLKPEDTAVYYCAKGIWGSTLTGQGTQVTVSS
notes: PDL1-1 nanobody fused with murine IL-12; two plasmids co-transfected 1:1; also called mP35-6his + mP40-P1
B21: Fusion 4 (other, murine)
chain 1: B20 chain 1
chain 2: QVQLQESGGGLVQPGGSLTLSCAASGFTVSNSAVSWARQAPGKGLEWVSLIDSNRNTVYAQSVRGRFTISRDNVKNTVYLQMNSLKPEDTAVYYCAKGIWGSTLTGQGTQVTVSSGGGGSGGGGSGGGGSMWELEKDVYVVEVDWTPDAPGETVNLTCDTPEEDDITWTSDQRHGVIGSGKTLTITVKEFLDAGQYTCHKGGETLSHSHLLLHKKENGIWSTEILKNFKNKTFLKCEAPNYSGRFTCSWLVQRNMDLKFNIKSSSSSPDSRAVTCGMASLSAEKVTLDQRDYEKYSVSCQEDVTCPTAEETLPIELALEARQQNKYENYSTSFFIRDIIKPDPPKNLQMKPLKNSQVEVSWEYPDSWSTPHSYFSLKFFVRIQRKKEKMKETEEGCNQKGAFLVEKTSTEVQCKGGNVCVQAQDRYYNSSCSKWACVPCRVRS
notes: PDL1-1 nanobody fused with murine IL-12; two plasmids co-transfected 1:1; also called mP35-6his + P1-mP40
B22: Fusion 1 (other, murine)
chain 1: RVIPVSGPARCLSQSRNLLKTTDDMVKTAREKLKHYSCTAEDIDHEDITRDQTSTLKTCLPLELHKNESCLATRETSSTTRGSCLPPQKTSLMMTLCLGSIYEDLKMYQTEFQAINAALQNHNHQQIILDKGMLVAIDELMQSLNHNGETLRQKPPVGEADPYRVKMKLCILLHAFSTRVVTINRVMGYLSSAGGGGSGGGGSGGGGSQVQLQESGGGLVQPGGSLTLSCAASGFTVSNSAVSWARQAPGKGLEWVSLIDSNRNTVYAQSVRGRFTISRDNVKNTVYLQMNSLKPEDTAVYYCAKGIWGSTLTGQGTQVTVSSHHHHHHHH
chain 2: MWELEKDVYVVEVDWTPDAPGETVNLTCDTPEEDDITWTSDQRHGVIGSGKTLTITVKEFLDAGQYTCHKGGETLSHSHLLLHKKENGIWSTEILKNFKNKTFLKCEAPNYSGRFTCSWLVQRNMDLKFNIKSSSSSPDSRAVTCGMASLSAEKVTLDQRDYEKYSVSCQEDVTCPTAEETLPIELALEARQQNKYENYSTSFFIRDIIKPDPPKNLQMKPLKNSQVEVSWEYPDSWSTPHSYFSLKFFVRIQRKKEKMKETEEGCNQKGAFLVEKTSTEVQCKGGNVCVQAQDRYYNSSCSKWACVPCRVRS
notes: PDL1-1 nanobody fused with murine IL-12; two plasmids co-transfected 1:1; also called mP35-P1-8his + mP40
B23: Fusion 3 (other, murine)
chain 1: QVQLQESGGGLVQPGGSLTLSCAASGFTVSNSAVSWARQAPGKGLEWVSLIDSNRNTVYAQSVRGRFTISRDNVKNTVYLQMNSLKPEDTAVYYCAKGIWGSTLTGQGTQVTVSSGGGGSGGGGSGGGGSRVIPVSGPARCLSQSRNLLKTTDDMVKTAREKLKHYSCTAEDIDHEDITRDQTSTLKTCLPLELHKNESCLATRETSSTTRGSCLPPQKTSLMMTLCLGSIYEDLKMYQTEFQAINAALQNHNHQQIILDKGMLVAIDELMQSLNHNGETLRQKPPVGEADPYRVKMKLCILLHAFSTRVVTINRVMGYLSSAHHHHHHHH
chain 2: B22 chain 2
notes: PDL1-1 nanobody fused with murine IL-12; two plasmids co-transfected 1:1; also called P1-mP35-8his + mP40

Numbering of substitutions follows the chain as printed. Several values for one entry are separate records, joined by “and”; a condition that tells them apart may be missing. Identical values can stand only once.

Results on 23 molecules are retold here after patent EP4703382A1 (Kanglitai Biomedical (Qingdao) Co., Ltd., dated 2026).

In general, EC50 refers to the concentration at which the effect is half-maximal. Higher therefore signals a less potent agent. In general, Kd refers to the constant that tells how readily two partners part at equilibrium. Higher therefore signals lower affinity. Usually IC50 stands for the midpoint of a concentration-inhibition curve.

T1 sequence (chain, as listed by the source limits assumed): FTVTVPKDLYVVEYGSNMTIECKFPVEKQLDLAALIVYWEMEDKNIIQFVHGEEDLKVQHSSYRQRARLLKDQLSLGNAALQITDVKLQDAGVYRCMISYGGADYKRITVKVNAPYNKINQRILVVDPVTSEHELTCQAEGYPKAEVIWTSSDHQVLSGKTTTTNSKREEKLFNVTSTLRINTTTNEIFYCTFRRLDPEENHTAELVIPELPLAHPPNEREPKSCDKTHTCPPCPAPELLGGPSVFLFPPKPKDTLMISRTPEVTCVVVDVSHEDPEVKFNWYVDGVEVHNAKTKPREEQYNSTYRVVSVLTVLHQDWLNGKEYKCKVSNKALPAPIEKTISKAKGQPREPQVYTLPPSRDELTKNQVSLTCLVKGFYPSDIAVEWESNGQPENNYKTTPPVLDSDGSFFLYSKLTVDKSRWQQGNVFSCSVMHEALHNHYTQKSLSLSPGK

One test has as its target T1, human PDL1-Fc fusion protein (human).
T1 construct: also called human PDL1-Fc recombinant protein
Put plainly: ELISA, human PDL1-Fc coated 200 ng/well, anti-His HRP. For orientation: An ELISA detects its analyte on a solid surface through an enzyme-linked reagent.
B1: the EC50 is 0.0108 µg/mL.
B2 gave an EC50 of about 110 µg/mL.
In turn, B3 returned an EC50 of 0.0275 µg/mL.
Still for that read-out and setting: with B4 the figure was 0.0505 µg/mL.
On the same count and under the same terms, with B5 the figure was 0.0336 µg/mL.

A further test has as its target T1, human PDL1-Fc fusion protein. Described as above. This is another data set of the same source.
B6 registered an EC50 of 0.028 µg/mL.
For the molecule B3, the EC50 worked out at 0.0251 µg/mL.
The same measure, in the same setting: the result for B7 reads 4 µg/mL; that for B8, 0.026 µg/mL.

Another test shares this target. The description is as above. This is another data set of the same source.
Turning to B9, a half-maximal response (EC50) required 0.0432 µg/mL.
On the same count and under the same terms, the result for B10 reads 0.02 µg/mL.
Molecule B11 registered an EC50 of 0.0423 µg/mL.
The same measure, in the same setting: with B12 the figure was 0.0629 µg/mL; with B13, 0.0342 µg/mL.

The target is the same in another test. The test is described as above. The source holds these as a separate data set.
B14 came in with an EC50 of 0.0182 µg/mL.
Still for that read-out and setting: with B11 the figure was 0.0591 µg/mL; with B15, 0.0664 µg/mL; with B16, 0.0461 µg/mL.
Molecule B17 gave an EC50 of 0.875 µg/mL.
The same measure, in the same setting: with B18 the figure was 1.24 µg/mL.
As to B19, the midpoint of the response, the EC50, lay at 0.0484 µg/mL.

A further test shares this target. The test is described as above. The source holds these as a separate data set.
With B20, the EC50 was 4.1 µg/mL and 54.3 nM.
For B21, the EC50 was 0.75 µg/mL and 9.91 nM.
The same measure, in the same setting: the result for B22 reads 0.373 µg/mL and 4.93 nM; that for B23, 0.251 µg/mL and 3.33 nM.

The target is the same in the next test. In words: BLI (ForteBIO Octet QKe), PDL1-Fc loaded, analyte 100 nM. In general terms: Biolayer interferometry detects binding as a change in optical thickness at a sensor tip.
On to B9, for which the dissociation constant (Kd) amounted to 10.8 nM.
Regarding B14, the Kd worked out at 4.16 nM.
In the case of B1, binding was characterised by a dissociation constant (Kd) of 5.9 nM.
In turn, B10 registered a Kd of 5.86 nM.
Turning to B11, the Kd came to 14.3 nM.
On to B2, for which binding was put at a Kd of 30.5 nM.
Take B6: the Kd was found to be 10.9 nM.
With B15, binding was characterised by a dissociation constant (Kd) of 10.2 nM.
Regarding B12, the affinity, expressed as Kd, was 14.3 nM.
Regarding B3, the Kd is 13.1 nM.
Turning to B16, binding was put at a Kd of 11.4 nM.
The same measure, in the same setting: with B17 the figure was 32.5 nM.
In turn, B7 yielded a Kd of 1320 nM.
B18: binding was characterised by a dissociation constant (Kd) of 389 nM.
Consider B4, for which the affinity, expressed as Kd, was 22.1 nM.
The same measure, in the same setting: the result for B19 reads 9.86 nM.
In turn, B13 returned a dissociation constant Kd of 7.37 nM.
B8 displayed a Kd of 12.1 nM.
On to B5, for which the Kd is 18.5 nM.

In the next test the target is T2, recombinant protein PD-L1-His (human, UniProt Q9NZQ7 19-238).
T2 construct: also called PD-L1-his fusion protein; human PDL1-his protein
T2 sequence (Q9NZQ7 19-238 limits assumed): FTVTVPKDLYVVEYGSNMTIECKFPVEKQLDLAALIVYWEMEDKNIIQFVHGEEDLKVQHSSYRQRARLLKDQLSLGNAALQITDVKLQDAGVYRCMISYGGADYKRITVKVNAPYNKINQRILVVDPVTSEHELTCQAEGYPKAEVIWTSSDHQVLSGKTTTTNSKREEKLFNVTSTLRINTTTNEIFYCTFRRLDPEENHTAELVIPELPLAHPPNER
Put plainly: competitive ELISA, PDL1-his coated, competitor PD1-Fc 50 µg/mL.
With B14, the IC50 is 5.22 µg/mL.
With B1, the IC50 was found to be 5.58 µg/mL.
Consider B10, for which the IC50 was 31.1 µg/mL.
Turning to B19, the IC50 amounted to 18.8 µg/mL.
For the molecule B13, the IC50 was 37.1 µg/mL.

For the next test, the target named is T3, human PD-L1 expressed on Raji cells (human, UniProt Q9NZQ7 19-290).
T3 construct: whole, on cells; also called Raji-PDL1; PDL1 protein expressed on Raji cells
T3 sequence (Q9NZQ7 19-290): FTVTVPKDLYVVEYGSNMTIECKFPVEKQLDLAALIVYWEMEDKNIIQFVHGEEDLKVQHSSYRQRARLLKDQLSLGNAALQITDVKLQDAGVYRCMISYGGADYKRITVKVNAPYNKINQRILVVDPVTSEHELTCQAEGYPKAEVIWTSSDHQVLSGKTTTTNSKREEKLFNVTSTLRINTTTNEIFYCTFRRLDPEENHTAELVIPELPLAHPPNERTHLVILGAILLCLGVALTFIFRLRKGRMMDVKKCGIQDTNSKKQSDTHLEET
Put plainly: flow cytometry competition on Raji-PDL1 cells, competitor PD1-Fc.
On to B14, for which the IC50 turned out to be 0.694 µg/mL.
On the same count and under the same terms, the result for B1 reads 0.458 µg/mL.
In turn, B10 had an IC50 of 2.48 µg/mL.
On the same count and under the same terms, with B19 the figure was 2.59 µg/mL; with B13, 4.58 µg/mL.
